From publication PMC4285857 (Proteins, 2013) come the findings set out here.

The target in assay [1] is T1, recombinant human IL-23R-IgG chimera (human, UniProt Q5VWK5 24-355, glycosylated).
T1 sequence (looked up): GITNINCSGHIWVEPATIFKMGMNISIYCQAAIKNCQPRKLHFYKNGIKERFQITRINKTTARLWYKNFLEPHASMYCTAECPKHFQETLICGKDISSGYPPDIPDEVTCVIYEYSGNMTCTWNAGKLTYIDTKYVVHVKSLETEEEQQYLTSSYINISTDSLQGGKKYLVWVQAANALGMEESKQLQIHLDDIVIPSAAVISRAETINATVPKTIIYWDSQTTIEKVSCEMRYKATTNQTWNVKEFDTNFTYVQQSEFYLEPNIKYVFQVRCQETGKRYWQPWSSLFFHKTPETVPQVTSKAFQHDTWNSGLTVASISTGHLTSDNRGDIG
Nature of the assay: SPR. A general note: In SPR one partner is held on a chip, and binding of the other changes the refractive index at the surface.

For assay [2], the target named is T2, H-exIL-23R, recombinant extracellular part of the human IL-23 receptor with N-terminal His6 tag (human, UniProt Q5VWK5 24-350).
T2 sequence (looked up): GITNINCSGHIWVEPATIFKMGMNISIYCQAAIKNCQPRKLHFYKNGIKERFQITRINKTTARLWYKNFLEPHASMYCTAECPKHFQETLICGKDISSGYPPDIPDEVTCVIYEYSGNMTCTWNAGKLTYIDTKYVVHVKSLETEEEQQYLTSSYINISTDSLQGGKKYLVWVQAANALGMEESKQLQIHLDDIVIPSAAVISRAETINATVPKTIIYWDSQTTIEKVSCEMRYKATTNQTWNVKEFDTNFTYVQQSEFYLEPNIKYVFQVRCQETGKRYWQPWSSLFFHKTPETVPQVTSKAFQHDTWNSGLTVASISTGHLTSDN
Nature of the assay: ELISA. For orientation: An ELISA detects its analyte on a solid surface through an enzyme-linked reagent.

Assay [3] addresses T1, recombinant human IL-23R-IgG chimera. In words: ELISA.

B1: His6-REX009-TolA-AVI (designed binder)
chain: His6-LAEAKVLANRELDKYGVSDYYKNRINPACHVLSVKSNIDWILASLP-{TolA-AviTag(biotin)}
modifications: not fully specified
B1: the Kd in assay [1] stood at 1.3 nM.

B2: His6-REX128-TolA-AVI (designed binder)
chain: His6-LAEAKVLANRELDKYGVSDRYKNSINRALPVAAVKWALDLILAWLP-{TolA-AviTag(biotin)}
modifications: not fully specified
For the molecule B2, in assay [2], the binding result is on record as “binds”.

B3: DH-MBP-p19, double-His6-MBP-p19 fusion protein with a C-terminal 40 aa solubility-supporting prolongation (ligand, human)
chain: RAVPGGSSPAWTQCQQLSQKLCTLAWSAHPLVGHMDLREEGDEETTNDVPHIQCGDGCDPQGLRDNSQFCLQRIHQGLIFYEKLLGSDIFTGEPSLLPDSPVGQLHASLLGLSQLLQPEGHHWETQQIPSLSPSQPWQRLLLRFKILRSLQAFVAVAARVFAHGAATLSPLEKKTCTSRASSTTTTTTEIRLLTKPERKLSWLLPPLSNN
Take B3: the binding result in assay [3] is given as “binds”.

B4: His6-REX125-TolA-AVI (designed binder)
chain: His6-LAEAKVLANRELDKYGVSDHYKNWINPARRVRPVKWLIDAILAALP-{TolA-AviTag(biotin)}
modifications: not fully specified
As to B4, in assay [1], the Kd is ~1 nM.

Broadly, the Kd is the concentration at which binding is half-saturated.
